In patent US20230192839A1, “ANTIBODIES HAVING CONDITIONAL AFFINITY AND METHODS OF USE THEREOF” (PFIZER INC., priority 2017, published 2023):
Numbering of substitutions follows the chain as printed.

B1: P02_E08: anti-CD33 clone with conditional affinity; VH SEQ ID NO: 37, VL SEQ ID NO: 38; also as scFv in CAR (antibody, V domains shown)
VH: QVQLVESGGGLVQAGGSLRLSCAASRRSSRSWAMHWVRQAPGKGLEWVAVISYDGRLKYYADSVKGRFTISRDNAEYLVYLQMNSLRAEDTAVYYCAASDYDGGGLFDLWGQGTLVTVSS
VL: QSVLTQPPSASGTPGQRVTISCSGSNSNIGDNYVHWYQQLPGTAPKLLIYMNNQRPSGVPDRFSGSKSGTSASLAISGLRSEDEADYYCATWDDSLSGVVFGTGTKLTVL
modifications: Synthetic Antibody
notes: also as scFv in CAR
B2: P03_H04: anti-CD33 clone with conditional affinity; VH SEQ ID NO: 39, VL SEQ ID NO: 40; also as scFv in CAR (antibody, V domains shown)
VH: QVQLVESGGGLVQAGGSLRLSCAASRRSSRSWAMHWVRQAPGKGLEWVAVISYDGRLKYYADSVKGRFTISRDNAEYLVYLQMNSLRAEDTAVYYCAADPHDGYGGGPGFDYWGQGTLVTVSS
VL: B1 VL with N26S, D31S, H35Y, M51R, N52S, T91A, S95T, G98A
modifications: Synthetic Antibody
notes: also as scFv in CAR
B3: P04_C05: anti-CD33 clone with conditional affinity; VH SEQ ID NO: 41, VL SEQ ID NO: 42 (antibody, V domains shown)
VH: QVQLVESGGGLVQAGGSLRLSCAASRRSSRSWAMHWVRQAPGKGLEWVAVISYDGRLKYYADSVKGRFTISRDNAEYLVYLQMNSLRAEDTAVYYCAAGLPWTDYWGQGTLVTVSS
VL: QSVLTQPPSASGTPGQRVTISCSGSNSNIGSNYVSWYQQLPGTAPKLLIYSNNQRPSGVPDRFSGSKSGTSASLAISGLRSEDEADYYCAAWDDRLSVVFGTGTKLTVL
modifications: Synthetic Antibody
B4: P01_B02: anti-CD33 clone with increased affinity in presence of MTX; VH SEQ ID NO: 31, VL SEQ ID NO: 32 (antibody, V domains shown)
VH: QVQLVESGGGLVQAGGSLRLSCAASRRSSRSWAMHWVRQAPGKGLEWVAVISYDGRLKYYADSVKGRFTISRDNAEYLVYLQMNSLRAEDTAVYYCAAADWYSGGGDALDIWGQGTLVTVSS
VL: DIQMTQSPSSLSASVGDRVTITCRASQTIYNYLNWYQQKPGKAPKLLIYGASNLQSGVPSRFSGSGSGTDFTLTISSLQPEDFATYYCQQTYSSPTFGQGTKVEIK
modifications: Synthetic Antibody
B5: P02_A10: anti-CD33 clone with conditional affinity; VH SEQ ID NO: 9, VL SEQ ID NO: 10 (antibody, V domains shown)
VH: B1 VH with S99E, D100S, Y101E, D102W, G103D, G104T, L106G, L109V
VL: B4 VL with T28S, Y30G, N31S, G50S, A51S, T91S, S93T, P95G
modifications: Synthetic Antibody
B6: P01_A09: anti-CD33 clone with conditional affinity; VH SEQ ID NO: 3, VL SEQ ID NO: 4; tested as scFv-Fc (antibody, V domains shown)
VH: QVQLVESGGGLVQAGGSLRLSCAASRRSSRSWAMHWVRQAPGKGLEWVAVISYDGRLKYYADSVKGRFTISRDNAEYLVYLQMNSLRAEDTAVYYCAAERPTSDGSTGGMDVWGQGTLVTVSS
VL: B4 VL with T28S, Y30S, N31S, N53T, T91S, P95G
B7: P04_C09: anti-CD33 clone with conditional affinity; VH SEQ ID NO: 23, VL SEQ ID NO: 24 (antibody, V domains shown)
VH: QVQLVESGGGLVQAGGSLRLSCAASRRSSRSWAMHWVRQAPGKGLEWVAVISYDGRLKYYADSVKGRFTISRDNAEYLVYLQMNSLRAEDTAVYYCAAEANESDSGGIDVWGQGTLVTVSS
VL: B4 VL with Y30G, N31G, G50A, N53S, T91G, P95G, T96A
modifications: Synthetic Antibody
B8: P16_E06: anti-CD33 clone with conditional affinity; VH SEQ ID NO: 29, VL SEQ ID NO: 30 (antibody, V domains shown)
VH: QVQLVESGGGLVQAGGSLRLSCAASRRSSRSWAMHWVRQAPGKGLEWVAVISYDGRLKYYADSVKGRFTISRDNAEYLVYLQMNSLRAEDTAVYYCAAEGGDYPGTSDGGLDIWGQGTLVTVSS
VL: B4 VL with T28S, Y30S, N53S, T91S, S94A, P95G
modifications: Synthetic Antibody
B9: P02_D08: anti-CD33 clone with conditional affinity; VH SEQ ID NO: 13, VL SEQ ID NO: 14 (antibody, V domains shown)
VH: B2 VH with D99E, P100R, H101G, Y104L, G105D, G107N, P108V, F110L, Y112I
VL: B4 VL with T28S, Y30S, N31K, N53T, T91S, P95G
modifications: Synthtic Antibody; Synthetic Antibody
B10: P08_C08: anti-CD33 clone with conditional affinity; VH SEQ ID NO: 27, VL SEQ ID NO: 28 (antibody, V domains shown)
VH: B6 VH with R100G, P101S, T102G, D104T, G105D, S106G, T107S, G109A, M110I
VL: B4 VL with T28S, Y30G, N31S, G50A, N53S, T91S, P95G, T96S
modifications: Synthetic Antibody
B11: P02_C02: anti-CD33 reference clone, less than 2-fold MTX effect; VH SEQ ID NO: 11, VL SEQ ID NO: 12 (antibody, V domains shown)
VH: QVQLVESGGGLVQAGGSLRLSCAASRRSSRSWAMHWVRQAPGKGLEWVAVISYDGRLKYYADSVKGRFTISRDNAEYLVYLQMNSLRAEDTAVYYCAAEGGMGLDPWGQGTLVTVSS
VL: B4 VL with Y30S, N31S, G50A, Q55H, T91S, P95G
modifications: Synthetic Antibody
B12: P02_H01: anti-CD33 clone with conditional affinity; VH SEQ ID NO: 17, VL SEQ ID NO: 18 (antibody, V domains shown)
VH: QVQLVESGGGLVQAGGSLRLSCAASRRSSRSWAMHWVRQAPGKGLEWVAVISYDGRLKYYADSVKGRFTISRDNAEYLVYLQMNSLRAEDTAVYYCAAGSGGGDGLDVWGQGTLVTVSS
VL: B4 VL with Y30S, N31S, G50S, A51S, N53T, S56G, T91S, P95G
modifications: Synthetic Antibody
B13: P02_E11: anti-CD33 clone with conditional affinity; VH SEQ ID NO: 15, VL SEQ ID NO: 16; also as scFv in CAR (antibody, V domains shown)
VH: B12 VH with G99E, S100A, G101S, G102T, G103D, D104N, V108Y
VL: B4 VL with Y30S, N31R, Y32H, G50S, N53S, Q55A, T91S, Y92H, S94A, P95G
modifications: Synthetic Antibody
notes: also as scFv in CAR

Tested on: human CD33
Test: Biacore SPR binding kinetics of anti-CD33 scFv-Fc clones with or without 10 µM MTX
Conditions: for koff, kinetics toward antigen with 0 µM MTX / kon, kinetics toward antigen with 0 µM MTX / Kd / koff, kinetics toward antigen with 10 µM MTX / kon, kinetics toward antigen with 10 µM MTX: 37° C., pH 7.4; for koff, kinetics toward antigen with 0 µM MTX / kon, kinetics toward antigen with 0 µM MTX / koff, kinetics toward antigen with 10 µM MTX / kon, kinetics toward antigen with 10 µM MTX: scFv-Fc; for Kd / koff, kinetics toward antigen with 10 µM MTX / kon, kinetics toward antigen with 10 µM MTX: 10 µM MTX; for Kd: koff/kon, or estimated from binding response / limit of detection for weak interactions, read-out: KD, kinetics toward antigen with 10 µM MTX
Source text: The first 4 rounds of panning used biotinylated CD33 antigen captured on streptavidin or neutravidin coated 96-well plates. […] 1536 clones were randomly chosen from the 4th and 5th round of panning against the CD33 antigen and their binding specificity determined by phage ELISA. Clones that specifically bound to CD33 were sequenced and all unique clones were subjected to a phage competition ELISA to assess their relative affinities to CD33 and sensitivity to MTX by measuring their binding strengths in the presence or absence of 10 µM (micromolar) MTX (i.e. in 0 or 10 µM MTX).
All binding kinetics analysis was performed on label-free Biacore surface plasmon biosensors (Biacore T200™ from GE Life Sciences) at 37° C. in 10 mM Hepes pH 7.4, 150 mM NaCl, 0.05% Tween-20 (HBST+), with or without 10 µM MTX. The Biacore data were processed in Biacore T200 Evaluation Software, and the data were double-referenced (Myszka, 1999, J Mol Recognit 12(5):279-284) and fit globally to a simple Langmuir with mass transport model to determine the equilibrium dissociation constant, KD, from the ratio of the kinetic rate constants (KD = koff/kon). In some cases the binding of antigen was very low (or not detectable) in the presence of 10 µM MTX and as a result kinetic rate constants could not be accurately determined. In these cases, a KD (or KD limit) was estimated based on the binding response at the highest analyte concentration tested or based on the typical limit of detection for a Biacore T200.

Row | Molecule | koff, kinetics toward antigen with 0 µM MTX (CD33) [s⁻¹] | kon, kinetics toward antigen with 0 µM MTX (CD33) [M⁻¹ s⁻¹] | Kd (CD33) [µM] | koff, kinetics toward antigen with 10 µM MTX (CD33) [s⁻¹] | kon, kinetics toward antigen with 10 µM MTX (CD33) [M⁻¹ s⁻¹] | affinity for CD33 in the presence of MTX as compared to absence (in words) (10 µM MTX vs 0 µM MTX) | times greater affinity for CD33 in the presence of 10 µM MTX as compared to in 0 µM MTX (CD33)
1 | B1 | 0.01 | 47000 | > 0.726 |  |  |  | 
2 | B2 | 0.026 | 72000 | > 15.7 |  |  |  | 
3 | B3 | 0.0021 | 83000 |  | 0.013 | 45000 |  | 
4 | B4 | 0.0026 | 140000 |  | 0.0006 | 390000 | increased affinity for CD33 in the presence of 10 µM MTX | about 10 times
5 | B5 | 0.044 | 84000 | > 9.02 |  |  |  | 
6 | B6 | 0.017 | 110000 |  |  |  |  | 
7 | B7 | 0.0018 | 160000 |  | 0.0089 | 44000 |  | 
8 | B8 | 0.011 | 120000 |  | 0.087 | 75000 |  | 
9 | B9 | 0.0061 | 61000 |  | 0.062 | 88000 |  | 
10 | B10 | 0.0045 | 63000 |  | 0.051 | 94000 |  | 
11 | B11 | 0.02 | 92000 |  | 0.025 | 110000 |  | 
12 | B12 | 0.037 | 28000 |  |  |  |  | 
13 | B13 | 0.0038 | 58000 |  |  |  |  | 
